The values below come from US20190112375A1 (Bristol-Myers Squibb, published 2019).

Assay [1] has as its target T1, cynomolgus monkey TIGIT on cells (cynomolgus monkey, UniProt A0A7N9I9V4 89-312).
T1 construct: whole, on cells; also called TIGIT from cynomolgus monkeys expressed on CHO cells; cyno TIGIT on primary cells
Briefly: method not stated; follows the sentence on TIGIT expressed on CHO cells; monkey TIGIT; KD, method not stated.

Assay [2] concerns the target T1, cynomolgus monkey TIGIT on cells. Briefly: binding to monkey CD8+ T cells; monkey CD8+ T cells; upper end of the range.
Assay [3] concerns the target T2, huTIGIT-muFc fusion protein (human; mouse, UniProt Q495A1 22-141).
T2 construct: also called TIGIT-mFc; not shown: mouse IgG2a Fc, at the C-terminus of the TIGIT part
T2 sequence: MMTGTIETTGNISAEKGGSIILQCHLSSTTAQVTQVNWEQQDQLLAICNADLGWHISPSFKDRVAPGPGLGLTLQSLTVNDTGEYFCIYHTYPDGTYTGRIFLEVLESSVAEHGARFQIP
Briefly: blockade of TIGIT-mFc (at its EC90, 12.8 nM) binding to P815 cells over-expressing human Nectin-2; competitor: human Nectin-2; P815 cells over-expressing human Nectin-2; TIGIT-mFc at EC90 12.8 nM.

In assay [4] the target is T3, human TIGIT on cells (human, UniProt Q495A1 22-244).
T3 construct: also called huTIGIT on Jurkat cells; Jurkat/hTIGIT
T3 sequence: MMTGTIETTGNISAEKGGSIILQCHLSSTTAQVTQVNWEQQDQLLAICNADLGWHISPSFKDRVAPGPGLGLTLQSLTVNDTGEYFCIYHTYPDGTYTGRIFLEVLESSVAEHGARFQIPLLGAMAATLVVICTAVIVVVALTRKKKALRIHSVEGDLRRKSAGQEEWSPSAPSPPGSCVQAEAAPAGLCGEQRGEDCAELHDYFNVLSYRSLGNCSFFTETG
Briefly: method not stated; follows the sentence on TIGIT expressed on CHO cells; human TIGIT; KD, method not stated.

Assay [5] deals with T1, cynomolgus monkey TIGIT on cells. Briefly: binding to monkey CD8+ T cells; monkey CD8+ T cells; lower end of the range.
The target of assay [6] is T2, huTIGIT-muFc fusion protein. Briefly: blockade of TIGIT-mFc (at its EC90, 14.1 nM) binding to P815 cells over-expressing human PVR; competitor: human PVR; P815 cells over-expressing human PVR; TIGIT-mFc at EC90 14.1 nM.
For assay [7], the target named is T4, human TIGIT (soluble, SPR; construct not stated) (human, UniProt Q495A1 22-141, limits assumed).
T4 construct: whole entry named; also called huTIGIT
T4 sequence: T2 sequence
Briefly: SPR.

Assay [8] deals with T5, hCD32a-H131 (FcγRIIA-H131) (human, UniProt P12318 36-218, limits assumed).
T5 sequence (looked up): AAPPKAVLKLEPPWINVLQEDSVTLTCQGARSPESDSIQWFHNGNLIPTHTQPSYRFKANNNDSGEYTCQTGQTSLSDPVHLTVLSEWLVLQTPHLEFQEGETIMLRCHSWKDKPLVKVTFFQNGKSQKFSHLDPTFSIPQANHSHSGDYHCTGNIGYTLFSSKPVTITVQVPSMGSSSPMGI
In words: Fcγ receptor binding as % of theoretical maximum response (% Rmax), two lots, two concentrations (10 µM, 1 µM); no negative control shown.

The target of assay [9] is hCD16a-V158 (FcγRIIIA-V158) (human, UniProt P08637 17-208). The assay is described as above.
Assay [10] addresses hCD16b-NA2 (FcγRIIIB-NA2) (human, UniProt O75015 17-200, limits assumed). The assay is described as above.
The target in assay [11] is T3, human TIGIT on cells. In words: binding to human CD8+ T cells; human CD8+ T cells.

Where only a bound is given, the exact number is not on record here.

B1: 22G2 IgG1.1f (antibody)
heavy: QVHLQESGPGLVKPSETLSLTCTVSGGSVSSGIYYWSWIRQPPGKGLEWIGYIYYSGSTNYNPSLKSRVTISVDTSKNQFSLKLSSVTAADTAVYYCARDYYVSGNYYNVDYYFFGVDVWGQGTTVTVSSASTKGPSVFPLAPSSKSTSGGTAALGCLVKDYFPEPVTVSWNSGALTSGVHTFPAVLQSSGLYSLSSVVTVPSSSLGTQTYICNVNHKPSNTKVDKRVEPKSCDKTHTCPPCPAPEAEGAPSVFLFPPKPKDTLMISRTPEVTCVVVDVSHEDPEVKFNWYVDGVEVHNAKTKPREEQYNSTYRVVSVLTVLHQDWLNGKEYKCKVSNKALPSSIEKTISKAKGQPREPQVYTLPPSREEMTKNQVSLTCLVKGFYPSDIAVEWESNGQPENNYKTTPPVLDSDGSFFLYSKLTVDKSRWQQGNVFSCSVMHEALHNHYTQKSLSLSPG
light: not shown
notes: effectorless IgG1.1f (L234A, L235E, G237A, A330S, P331S, EU numbering); also called anti-TIGIT mAb 22G2 IgG1.1f; antibody 22G2 IgG1.1f; copies: 2 + 2
As for B1, the results for the Kd (in assay [1]; in the assay with human TIGIT on cells [4]; in assay [7]) were 0.07 nM, 0.09 nM and 0.07 nM, respectively. Moreover, the EC50 is ≤ 0.58 nM in assay [2], ≥ 0.28 nM in [5] and 0.55 nM in the assay with human TIGIT on cells [11]. The IC50 in assay [3] was found to be 5.72 nM; in assay [6], 15.4 nM. The same molecule displayed a koff in assay [7] of 0.00013 s⁻¹. This molecule also had a kon in assay [7] of 2e+06 M⁻¹ s⁻¹. The binding result in assay [8], in assay [9] and in [10] was “no binding (tested: 10 µM)” throughout.
